Substitutions are numbered along the chain they refer to. Names and notes keep the numbering of the source.
B1: CHIP R225∗, recombinant, C-terminal His tag (enzyme, human, UniProt Q9UNE7-1 1-224, looked up)
chain: MKGKEEKEGGARLGAGGGSPEKSPSAQELKEQGNRLFVGRKYPEAAACYGRAITRNPLVAVYYTNRALCYLKMQQHEQALADCRRALELDGQSVKAHFFLGQCQLEMESYDEAIANLQRAYSLAKEQRLNFGDDIPSALRIAKKKRWNSIEERRIHQESELHSYLSRLIAAERERELEECQRNHEGDEDDSHVRAQQACIEAKHDKYMADMDELFSQVDEKRKK
notes: CHIP (STUB1), human, SCA48-associated nonsense variant R225∗ (stop in place of R225, U-box domain lost); source: PD-10 desalting for mass photometry, size exclusion for ubiquitination assays
B2: CHIP P228S, recombinant, C-terminal His tag (enzyme, human, UniProt Q9UNE7-1 1-303, looked up)
chain: MKGKEEKEGGARLGAGGGSPEKSPSAQELKEQGNRLFVGRKYPEAAACYGRAITRNPLVAVYYTNRALCYLKMQQHEQALADCRRALELDGQSVKAHFFLGQCQLEMESYDEAIANLQRAYSLAKEQRLNFGDDIPSALRIAKKKRWNSIEERRIHQESELHSYLSRLIAAERERELEECQRNHEGDEDDSHVRAQQACIEAKHDKYMADMDELFSQVDEKRKKRDISDYLCGKISFELMREPCITPSGITYDRKDIEEHLQRVGHFDPVTRSPLTQEQLIPNLAMKEVIDAFISENGWVEDY
notes: CHIP (STUB1), human, SCA48-associated U-box variant P228S; source: PD-10 desalting for mass photometry, size exclusion for ubiquitination assays; not shown: His tag, C-terminal, kept
B3: CHIP R241W, recombinant, C-terminal His tag (enzyme, human, UniProt Q9UNE7-1 1-303, looked up)
chain: B2 chain with S228P, R241W
notes: CHIP (STUB1), human, SCA48-associated U-box variant R241W; source: PD-10 desalting for mass photometry, size exclusion for ubiquitination assays
B4: CHIP A67T, recombinant, C-terminal His tag (enzyme, human, UniProt Q9UNE7-1 1-303, looked up)
chain: B2 chain with A67T, S228P
notes: CHIP (STUB1), human, SCA48-associated TPR-domain variant A67T; source: PD-10 desalting for mass photometry, size exclusion for ubiquitination assays
B5: CHIP P57L, recombinant, C-terminal His tag (enzyme, human, UniProt Q9UNE7-1 1-303, looked up)
chain: B2 chain with P57L, S228P
notes: CHIP (STUB1), human, SCA48-associated TPR-domain variant P57L; source: PD-10 desalting for mass photometry, size exclusion for ubiquitination assays
B6: CHIP F37L, recombinant, C-terminal His tag (enzyme, human, UniProt Q9UNE7-1 1-303, looked up)
chain: B2 chain with F37L, S228P
notes: CHIP (STUB1), human, SCA48-associated TPR-domain variant F37L; source: PD-10 desalting for mass photometry, size exclusion for ubiquitination assays
B7: CHIP I53T, recombinant, C-terminal His tag (enzyme, human, UniProt Q9UNE7-1 1-303, looked up)
chain: B2 chain with I53T, S228P
notes: CHIP (STUB1), human, SCA48-associated TPR-domain variant I53T; source: PD-10 desalting for mass photometry, size exclusion for ubiquitination assays
B8: CHIP G33S, recombinant, C-terminal His tag (enzyme, human, UniProt Q9UNE7-1 1-303, looked up)
chain: B2 chain with G33S, S228P
notes: CHIP (STUB1), human, SCA48-associated TPR-domain variant G33S; source: PD-10 desalting for mass photometry, size exclusion for ubiquitination assays; not shown: His tag, C-terminal, kept

Key:
[1] = target: the molecule itself; experiment: mass photometry; Refeyn OneMP; CHIP at 50 nM final (a subset also at 20 nM and 100 nM) in 20 mM HEPES pH 8.0, 200 mM NaCl; self-association, oligomeric states by mass
[2] = target: the molecule itself; experiment: as above; remark: listed apart in the source

Protein	stoichiometry N [1]	binding result [2]
B1	2	
B2		binds
B3		binds
B4		binds
B5		binds
B6		binds
B7		binds
B8		binds
